The source of these data is patent US8470576B2, “Group of novel enantioselective microbial nitrile hydratases with broad substrate specificity” (B.R.A.I.N. AG, priority 2006, dated 2013).

Series [1] is described as follows: Enantioselectivity of NHases towards rac-mandelonitrile (washed cells, chiral HPLC). The series is classed as biochemical. To be noted: for enantiopreference: (R/S)-mandelonitrile; for Eapp-value: kinetic resolution of (R/S)-mandelonitrile; for Eapp-value heterologously expressed / Eapp-value homologously expressed: rac-mandelonitrile; for Eapp-value heterologously expressed: heterologously expressed NHase; for Eapp-value homologously expressed: homologously expressed NHase. The protocol:
For the determination of enantioselectivity towards rac-mandelonitrile and 2-phenylpropionitrile 40-50 mg of washed cells were resuspended in 1 ml of 50 mM Tris/HCl pH 7.5. 100 μl of cell suspension were mixed with 800 μl 50 mM Tris/HCl pH 7.5 and incubated at 30° C. in a thermomixer at 1000 rpm. The biotransformation was started by addition of 100 μl of 10 mM rac-mandelonitrile or rac-2-phenylpropionitrile in 50 mM Tris/HCl pH 7.5. The reaction was stopped by addition of 100 μl 1M HCl after 1, 5 or 10 min. Cells were removed by centrifugation and the supernatant analysed by chiral HPLC for the presence of mandeloamide and phenylpropionamide, respectively. rac-Mandeloamide was analysed on a HPLC comprising a Surveyor 4 channel Pump, AutoSampler and UVNIS detector at 210 nm from Thermo Finnigan on a Nucleodex β-OH column (Macherey & Nagel) using 50% methanol/water:water (40:60) as mobile phase at a flow rate of 0.7 ml/min. The apparent enantiomeric ratio (Eapp) of the conversion of mandelonitrile was calculated according to Straathof and Jongejan for […] (see example 9). In case of 2-phenylpropionamide, the samples were lyophilized and resuspended in n-hexane: 2-propanol (80:20). Prior to injection, the samples were additionally dried with sodium sulfate and were centrifugated at 16,000 g for 5 min. The supernatants were analyzed using a Chiracel OD column (Daicel) on a Spectra System (AS3000, P2000, UV2000 at 210 nm) from Thermo Separation Products with n-hexane: 2-propanol (80:20) as mobile phase at a flow rate of 0.5 ml/min. The enantiomeric ratio (E) of the conversion of PPN was calculated according to Chen et al. […]

The nature of series [2]: Activity of enzyme samples after heterologous expression of NHases in E. coli towards PPN. The series is classed as biochemical. As to conditions: 1 mM PPN; stopped after 1 min; host E. coli BL21 (DE3) (a) or E. coli Rosetta (DE3) (b). On the procedure:
The amplified α-subunits were ligated to pET22b whereas the β-subunits were ligated to pET26b by use of the unique NdeI and XhoI restriction enzyme recognition sites. E. coli BL21 (DE3) or E. coli Rosetta (DE3) was cotransformed with the vectors carrying the genes for the corresponding α- and β-subunits of the NHases. Freshly transformed cells were grown over night at 37° C. in 5 ml LB-medium containing 100 μg/ml ampicillin, 25 μg/ml kanamycin and 2% (w/v) glucose. In case of E. coli Rosetta (DE3) 12.5 μg/ml chloramphenicol was additionally used. 1 ml of this culture was used to inoculate 100 ml of LB-medium containing 100 μg/ml ampicillin, 25 μg/ml kanamycin and 1% (w/v) glucose. Cells were incubated at 20° C. or 30° C. on a gyratory shaker at 100 rpm. At an optical density O.D.595=1 cells were induced by addition of 100 μg/ml IPTG. Simultaneously, CoCl2*6H2O was added in a concentration of 250 μM. When the P16K activator protein from the strain Brevibacterium linens was coexpressed with the corresponding NHase E. coli Rosetta (DE3) pET22—32B1α pET26—32B.1β pBBR5—32B_P16K was grown in LB-medium containing 100 μg/ml ampicillin, 25 μg/ml kanamycin, 12.5 μg/ml chloramphenicol and 10 μg/ml gentamycin and 1% (w/v) glucose. Samples were taken 24 h after induction.
If not otherwise indicated enzyme samples were prepared as follows: the cells from 1 ml of the culture were washed with 50 mM Tris/HCl pH 7.5 and resuspended in 750 μl of the same buffer. This suspension was incubated at 30° C. in a thermomixer at 1000 rpm. The biotransformation was started by addition of the substrate 2-phenylpropionitrile (PPN) in 50 mM Tris/HCl pH 7.5. The concentration of the substrate was 1 mM, if not otherwise stated. The reaction was stopped after 1 min, 5 min or 10 min as indicated by addition of 1 M HCl. Cells were removed by centrifugation and the supernatant analysed by HPLC for the presence of the corresponding amide. The HPLC analysis was carried out on a system comprising a Surveyor 4 channel Pump, AutoSampler and UVNIS detector at 210 nm from Thermo Finnigan on a Grom-Sil 1200DS-3 cp 3 μm (125×4.6 mm) reverse phase column. As mobile phase, acetonitrile and 0.3% H3PO4 were used in a ratio of 50:50 at a flow of 0.7 ml/min, respectively.

Series [3] in a line: Determination of the isoelectric point (Phast-System). The series is classed as physicochemical. To be noted: purified enzyme. The protocol: The IEP of the purified enzyme according to Seq. ID No. 2 and 4 was determined to be 3.5-3.6 using the Phast-System (Amersham Pharmacia).

B1: NHase Seq ID No. 2 and 4: nitrile hydratase of Raoultella terrigena strain 77.1, α-subunit SEQ ID NO 2, β-subunit SEQ ID NO 4 (protein)
alpha: MSHKHDHDHTEPPVDIELRVRALESLLQEKGLIDPAALDELIDTYEHKVGPRNGAQVVARAWSDPEYKRRLMENATAAISELGFSGIQGEDMLVVENTPDVHNVTVCTLCSCYPWPVLGLPPVWYKSAPYRSRIVIDPRGVLAEFGLHIPESKEIRVWDSSAELRYLVLPERPAGTDGWSEAQLSELISRDSMIGTGVVTAP
beta: MNGIHDLGGMHGFGPIPTEENEPYFHHEWERRVFPMFASLFVGVHFNVDEFRHSIECMPPADYLQSSYYEHWLHAFETLLLAKGVITVDELWGGAKPTLCKPGTPVLTQDMVSMVVSTGGSARVSHDVAPRFRVGDRVRTKNFNPTTHTRLPRYARDKVGRIEIAHGVFITPDTAAHGLGEHPQHVYSVSFTAQELWGEPRPDNVFIDLWDDYLEEA
modifications: Raoultella terrigena, strain 77.1
For the molecule B1, in series [1], the enantiopreference entry is on record as “(S)”, the Eapp-value amounted to 20, the Eapp-value heterologously expressed worked out at 20 and the Eapp-value homologously expressed was found to be 19. Moreover, in series [2], the vol. activity is 4.9 μkat/L cultur. Besides, the IEP in series [3] is reported as 3.5-3.6.

B2: NHase Seq ID No. 18 and 20: nitrile hydratase of Klebsiella oxytoca strain 38.1.2, α-subunit SEQ ID NO 18, β-subunit SEQ ID NO 20 (protein)
alpha: MSHKHDHDHTQPPVDIELRVRALESLLQEKGLIDPAALDELIDTYEHKVGPRNGAQVVARAWSDPEYKRRLMENATAAIAELGFSGIQGEDMLVVENTPDVHNVTVCTLCSCYPWPVLGLPPVWYKSAPYRSRIVIDPRGVLAEFGLHIPENKEIRVWDSSAELRYLVLPERPAGTEGWSEAQLSELITRDSMIGTGVVTAP
beta: MNGIHDLGGMHGLGPIPTEENEPYFHHEWERRVFPLFASLFVGGHFNVDEFRHAIERMAPTEYLQSSYYEHWLHAFETLLLAKGVITVEELWGGAKPAPCKPGTPVLTQEMVSMVVSTGGSARVSHDVAPRFRVGDWVRTKNFNPTTHTRLPRYARDKVGRIEIAHGVFITPDTAAHGLGEHPQHVYSVSFTAQALWGEPRPDKVFIDLWDDYLEEA
modifications: Klebsiella oxytoca, strain 38.1.2
B2: in series [1], the enantiopreference entry is recorded as “(S)”, the Eapp-value worked out at 19, the Eapp-value heterologously expressed is 19 and the Eapp-value homologously expressed was found to be 17. In series [2], this molecule showed a spec. activity of 9.6 μkat/g cdw and a vol. activity of 8.6 μkat/L cultur.
